Values belong to the binder of their own block, whether it stands above or below them.
Legend:
[1] = biological target: T1, Prp19, separately purified (analytical ultracentrifugation) (S. cerevisiae), P32523; assay: AUC; conditions: remark: other sources report otherwise
T1 chain: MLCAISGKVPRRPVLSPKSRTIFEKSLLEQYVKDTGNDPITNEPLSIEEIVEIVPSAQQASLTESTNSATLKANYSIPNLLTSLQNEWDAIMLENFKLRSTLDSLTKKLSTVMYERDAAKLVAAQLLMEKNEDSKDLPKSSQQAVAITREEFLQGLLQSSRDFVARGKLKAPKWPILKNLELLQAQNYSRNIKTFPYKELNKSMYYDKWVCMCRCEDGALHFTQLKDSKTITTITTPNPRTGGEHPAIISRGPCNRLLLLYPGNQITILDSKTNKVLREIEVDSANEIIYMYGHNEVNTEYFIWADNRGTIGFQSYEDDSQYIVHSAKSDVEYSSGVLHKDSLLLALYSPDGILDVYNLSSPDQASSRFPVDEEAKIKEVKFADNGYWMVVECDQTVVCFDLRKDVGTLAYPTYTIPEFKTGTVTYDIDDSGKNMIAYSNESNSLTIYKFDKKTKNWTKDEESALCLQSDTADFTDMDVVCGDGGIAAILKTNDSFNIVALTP

[2] = biological target: T2, Cwf8-Myc13 (S. pombe Prp19) (S. pombe, UniProt O14011 1-488); assay: co-IP
T2 sequence (looked up): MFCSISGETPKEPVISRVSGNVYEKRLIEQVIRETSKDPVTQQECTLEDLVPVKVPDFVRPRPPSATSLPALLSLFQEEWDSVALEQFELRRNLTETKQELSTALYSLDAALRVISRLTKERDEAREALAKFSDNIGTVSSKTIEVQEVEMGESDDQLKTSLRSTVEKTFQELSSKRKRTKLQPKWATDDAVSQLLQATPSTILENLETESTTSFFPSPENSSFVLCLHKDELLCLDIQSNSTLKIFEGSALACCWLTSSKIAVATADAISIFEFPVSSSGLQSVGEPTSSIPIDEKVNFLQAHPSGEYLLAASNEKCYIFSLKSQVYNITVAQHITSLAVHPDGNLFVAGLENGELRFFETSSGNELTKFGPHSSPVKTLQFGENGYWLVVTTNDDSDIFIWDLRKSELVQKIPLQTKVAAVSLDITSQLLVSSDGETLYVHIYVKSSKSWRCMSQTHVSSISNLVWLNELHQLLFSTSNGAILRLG

stoichiometry N [1]: 4
B1: Prp19, separately purified (analytical ultracentrifugation), P32523 1-503 (natural protein)
chain: T1 chain

stoichiometry N [2]: 2 copies of Cwf2 per four copies of Cwf8
B2: Cwf2-Myc13 (S. pombe Cwc2) (natural protein, UniProt P87126 1-388, looked up)
chain: MSENGLEQEVTVEEKNNDVTEKILVEGEKSKEYEETPRKVKIVKRKKQPARKQIETRPEYEMEPEQPGQVYNLWYNKWSGGMRQDPLKSQVKSETRCVISRDSGYTKADKNPGSFFCLYFARGMCSEGSKCEYLHRLPKDTDFFNANVDCFGREKHADYRDDMGGVGSFLRQNYTLYVGGITPTDDIEEIVSRHFAEWGDIERIRVLNSRGIAFITYLNEANAQFAKEAMAHQSLDHDECLNVRWATTDPNPASQARNQRRLEERAANAVKKLLPKQFLLDLEETKNGKSGNRKRKLELEFGLKGYVPSDDLLYADGANSVHNQLAANEFPNKSQSEEGSNDDHKSVTTTESQNKFVNSQILSDLQVAKQAVHTNQSALVSYYDSDED
